Measured values as given in paper PMC5923107 (Antimicrobial Agents and Chemotherapy, 2018).

What was measured:
Experiment in all cases: ELISA
Conditions in all cases: both partners purified
[1] = biological target: T1, hemagglutinin (HA) of influenza B virus B/Malaysia/2506/2004 (Victoria lineage) (Influenza B virus B/Malaysia/2506/2004; …, UniProt C0LT35, strain)
T1 construct: also called B/Malaysia/2506/2004 HA; source: bought: Protein Sciences

[2] = biological target: T2, hemagglutinin (HA) of influenza B virus B/Brisbane/60/2008 (Victoria lineage) (Influenza B virus B/Brisbane/60/2008, UniProt C0LT35, strain)
T2 construct: also called B/Brisbane/60/2008 HA; source: bought: Immune Tech

[3] = biological target: T3, hemagglutinin (HA) of influenza B virus B/Florida/04/2006 (Yamagata lineage) (Influenza B virus B/Florida/4/2006, UniProt E1TVD5, strain)
T3 construct: also called B/Florida/4/2006 HA; HA of B/Florida/04/2006; source: bought: Sino Biological

[4] = biological target: T4, hemagglutinin (HA) of influenza B virus B/Victoria/2/1987 (Victoria lineage) (Influenza B virus B/Victoria/2/1987, UniProt P22092, strain)
T4 construct: also called B/Victoria/2/1987 HA; source: bought: Immune Tech

Measured: binding result

B1: TRL854 (antibody, V domains shown)
VH: QVQLVESGAEVKKPGASVRVSCKGSGYTFTAYHMHWVRQAPGQGFEWVGWINPNSGATYYTSTFEGRVTMTRDTSITTAYMELSSLRSDDTAVYYCATDIVVERDASLGGFNSYGMDVWGQGTTVTVSS
VL: DIEMTQSPLSLPVTPGEPASISCRSSQSLLHSNGYNHLAWYLQKPGRSPHLLIYLASTRASGVPDRFSGSGSGTDFTLKISRVEAEDVGIYYCMQSLQTSITFGQGTRLEIK
notes: also called MAb TRL854
binds: all assays above

B2: TRL849 (antibody, V domains shown)
VH: QVQLVESGPGLVKPSQTLSLTCTVSGGSISNGGYHWSWIRQHPGKGLEWIGNIYYRGSTFYDPSLKSRVTISVDTSKSQFSLKLTSVTAADTAVYYCARMPLANYDLLTGLYIGAFDLWGQGTMVTVSS
VL: DIVLTQSPATLSVSPGERATLSCRASQSVNRNLAWFQQIPGQAPRLLIFDASTRAADIPARFSGGGSGAEFTLTVSSLQPEDFAVYYCQQYDKWPPGFGQGTKVEIK
notes: also called MAb TRL849
binds: [1] | [2] | [4]

B3: TRL847 (antibody, V domains shown)
VH: QVQLVESGGGLVQPGGSLRLSCVASGFTFSRFSMNWVRQAPGMGLEWVSYISDTGRTIYYADSVKGRFTISRDNDKNTLYLQMKSLRDEDSAFYYCARDPDTPFVRAFDSWGQGVLVTVSS
VL: DIVMTQSPSFLSASVGDRVTITCRTSQVISSYLAWYQQRPGKAPKLLIYAASTLQSGVPSRFSGSGSGTRFSLTISNLQPEDFATYFCQQLTTYPPITFGQGTRLEIK
notes: also called MAb TRL847
binds: all assays above

B4: TRL845 (antibody, V domains shown)
VH: QVQLVQSGGDLVQPGGSLRLSCAASGFTFSRYSMNWVRQAPGMGLEWVAYISDTSRTIYYADSVKGRFTISRDNAKNSLYLQMKSLRDEDTAVYYCARDPDTPFVRAFDSWGQGTLVTVSS
VL: DIVLTQSPSFLSASVGDRVTITCRASQLISSYFAWYQQKPGKPPKLLIYAASTLQSGVPSRFSGSGSGTQFSLTISSLQPEDFATYYCQQLNSYPPITFGQGTRLEIK
notes: also called MAb TRL845
binds: [1] | [2] | [4]

B5: TRL848 (antibody, V domains shown)
VH: QVQLLESGGDVVQPGTSLRLSCAASGFSLWTSGMHWVRQAPGKGLEWVAVMSYDETKKYYADSVRGRFSISRDNSRNTLYLQMNSLRVEDTAVYFCAKPRLDYLDYFHAADSWGQGTLVSVSS
VL: DIVLTQPPSVSVAPGQTATITCGGNYIGSKSVNWYQQRPGHAPVLVVYDDSDRPSGIPDRFSGSNSRSTATTATLTISRVEAGDEADYYCQVWETSEDLWVFGGGTKLTVL
notes: also called MAb TRL848
binds: all assays above
